Substitutions are numbered along the chain they refer to. Blank lines part the entries; values can stand above or below the binder they belong to.
What was measured:
[1] = biological target: T1, human myostatin (human) (UniProt O14793)
T1 sequence (biotinylated in selections and radioactive assays (site not stated), looked up): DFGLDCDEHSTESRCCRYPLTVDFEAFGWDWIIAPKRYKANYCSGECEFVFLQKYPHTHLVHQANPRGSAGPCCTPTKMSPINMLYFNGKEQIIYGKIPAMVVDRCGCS

[2] = biological target: T1, human myostatin (human); assay: cell-based or functional assay

B1: M3-1, E. coli-produced (designed binder)
chain: MTIPEIIIKVRGTQVVGSDMTVIVEFTNPLKETLRNVWVHLDGPGVTRPMKKMFRAIPMNHKVQWEEVVRPWVSGHRKLIASMPQLFHIHVYGELDVQIQRRHHHHHH
EC50 (read off the curve); blocking of myostatin-induced inhibition of MPC-11 proliferation [1]: 30 nM

B4: M07, E. coli-produced (designed binder)
chain: MTIPEIIIKVRGTQVVGSDMTVIVEFTNPFKETLRSVWVHLDGPGVTRPMKKMFREIPPKTTVQWEEVVRPWVSGHRKLIARCQLLPWHVYGELDVQIQRRHHHHHH
MPC-11 cell proliferation assay, IC50 [2]: 150 to 200 nM

Continued, values first:

MPC-11 cell proliferation assay, IC50 [2]: 150 to 200 nM
B2: M56, E. coli-produced (designed binder)
chain: B4 chain with T27S, S36N, R55S, P58R, K60N, T61S, Q84S, L86S

MPC-11 cell proliferation assay, IC50 [2]: 150 to 200 nM
B3: M71, E. coli-produced (designed binder)
chain: B4 chain with R55S, P58R, K60N, T61S, Q84S, L86S

Reference: US20110059504A1
